Measured values reported in the supplement of paper PMC9170038.

Test system: MS2 coat protein
Assay: apparent KD of MS2 coat protein; higher = weaker reporter binding
Conditions: Eterna round: R107
Procedure, shortened: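 On-chip transcription from Illumina sequencing clusters produced the designed RNA switches. These were titrated with SNAP-549-labelled MS2 coat protein (twofold steps, 0.7 or 1.5 nM to 3 µM) in 100 mM Tris-HCl pH 7.5, 80 mM KCl, 4 mM MgCl2, with or without constant ligand. The apparent KD given is the per-design median of normalised cluster binding-curve fits.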

[1] = input ligand: theophylline 20 uM
[2] = input ligand: theophylline 2 mM
[3] = input ligand: tryptophan 2.4 mM

| Sequence | apparent KD of MS2 coat protein (input ligand: arginine 13.2 mM) [nM] | apparent KD of MS2 coat protein [1] [nM] | apparent KD of MS2 coat protein [2] [nM] | apparent KD of MS2 coat protein [3] [nM] | apparent KD of MS2 coat protein (input ligand: none) [nM] |
| --- | --- | --- | --- | --- | --- |
| GUUGUAUACUCGGCCGCCACUGAGAGAGUCAUGUAAACAUGAGGAUCACCCAUGUAAUAUAUAUACAGGACCGGGAGUAUGGUAA [4.F] | 12.1 | 16.2 | 15.4 | – | – |
| UAAAACAUGAGGAUCACCCAUGUAAAUGAUACCAGAGUGAUGAUCCUCCCUUGGCAGCAUAACGCUGAUUGGAAACAAUCAGCGA [Mat - Same State Theophlline A - Mod of Eli - D23] | 28.8 | 144 | – | 75.8 | – |
| UAAAUAAUCUGGGUGUAGGUAAUAACAGAUACCAGCCAGAUAACUGGCCCUUGGCAGCUGAUAACAUGAGGAUCACCCAUGUAAA [Mat - Same State Theophlline A - Mod of Eli - D20] | 47 | 114 | – | 55.6 | – |
| UAACAUGAGGAUCACCCAUGUUUAGAUGAACGAGGACCGGUACGGCCGCCACUCGAUAAGUGGAAGAAACGAGGGAUUGUAUGAU [Same State Trp A GF2] | 14.1 | 15.1 | 18.8 | 18.3 | 12.7 |
| UAACAUGAGGAUCACCCAUGUUUGAAGGAACGAGGACCGGUACGGCCGCCACUCGACGAGUGGAUGAGAAGUGGGAUAGUGUGCU [Same State Trp A GF7] | 15.3 | 18.2 | 14.3 | – | – |
| UAAGUUAGGGCGGCCGCCACUCGAACAUGAGGAUCACCCAUGUAAAUUAAUUAAAGGACAUGAAUGAGGACCGGGCCAAGUUAGA [Same State - Tryptophan B / A] | 13.9 | 20.2 | 15.2 | – | – |
| UAAUAAAUAAAUCCAAGGUGAAGGUCAGAUACCAGCCAGAUAACUGGCCCUUGGCAGCUGAAUAAUCAUGAGGAUCACCCAUGAA [TheoAS 25 #OpenEnded #MS2Late #AlternativeMS2] | 17.2 | 24.7 | 63.9 | 19.5 | 22.8 |
| UACAAACAUGAGGAUCACCCAUGUAGUGAUACCAGCAUAACAGAUUGCCCUUGGCAGCACCGGUUUGUACUCAAACGAAGUACGG [theeternabot_sameState_MS2_Theo_A_36] | 56 | 86.2 | – | 52.9 | – |
| UACAUGAGGAUCACCCAUGUAUAGAGGGAUACCAGUGUCAGUGAGCACCCUUGGCAGCCCGCGAACAAUGGGUGCGCUAAAUAGU [#19 Exclusion-TheophyllineA] | 23.2 | 75.3 | – | 32.4 | – |
| UACAUGAGGAUCACCCAUGUAUGAAUGGAUACCAGAUAAAAUAAGGUCCCUUGGCAGCUAGUGAAUCGAGGGUGGGUAUCAUGAU [#13 Exclusion-TheophyllineA] | 10.6 | 12.8 | – | 10.2 | – |
| UACAUGAGGAUCACCCAUGUGGCGGAUGAUACCAGUAUGGUGACAUACCCUUGGCAGCAUGCUAUGAGGAUCACCCAUGUGUGCA [EThA NP+V+V2 #11 DOUBLE] | 56.3 | 84.9 | – | 70.7 | – |
| UACCGAGAGGGAAGGAGCGCGAUAACAUAACAUGAGGAUCACCCAUGUAAGAAAUUAAUCAUGCAGGUAGGUCGCCCAAGCGGAU [Same State Arginine B GF 2] | 16.7 | 21.5 | 15.8 | 14.7 | 15.4 |
| UACUUGCUGACGGCCGCCACUAGAACAUGAGGAUCACCCAUGUAAGUGGUUGGUUCAUGGGUGACUAGGACCGGGUCAGCAAGAU [(Trp1)-(Ms2)-(T)'-(M)'-(Trp2)_Design19] | 26.9 | 47.9 | 37.7 | – | – |
| UAGACGGCCGGAAGGAGCGGUACAUGAGGAUCACCCAUGUACCUCUGGGCAUCCGUAGUGUGCCAGGUAGGUCGCCGGUUGCGGG [Tebecela] | 12.6 | 12.5 | 11.4 | 13.7 | 11.6 |
| UAGGCACGAGACAUGAGGAUCACCCAUGUUCGAGGACCGGUACGGCCGCCACUCGGUGGACUCAUGGUAAAGCCGGUGAGCCAAU [AK 1.2 SS Trypt (A)] | 16.7 | 28.1 | 15.8 | 51.6 | 17.1 |
| UAGUAACAUGAGGAUCACCCAUGUCCGGAUACCAGACAUAUACCAGUCCCUUGGCAGCCGCCAGUUAAAAUCUAACACAAAAGUU [theeternabot_sameState_MS2_Theo_A_34] | 38.8 | 55 | – | 34.4 | – |
| UAUAAAAUAACAGAUACCAGCGUGUUAUAAAACAUGAGGAUCACCCAUGUAGUGAUCAAGCGCCCUUGGCAGCUGGUAUUUUAUA [7.B] | 97.2 | 150 | – | 142 | – |
| UAUACAUGAGGAUCACCCAUGUACCAUGAAGGAGCGCAGAAAUCUGCAGGUAGGUCGCAUGGGUUAUGACCUCGGCAUAAUAACG [Enreusus] | 40.5 | 46.9 | 39.7 | 26.2 | 27.8 |
| UAUAUAGAUGGACGUCAUAUAGAUGCAGAAGGAGCGUAGGAAACUACAGGUAGGUCGCUGAGGUACAUGAGGAUCACCCAUGUAG [SSArg A #19 Slice of Pi] | 34.3 | 38 | 37.9 | 20.9 | 26.5 |
| UAUAUAUAAAUUGAUACCAGCGAGAAAACAUGAGGAUCACCCAUGUUCGCCCAUGUUAAGCGCCCUUGGCAGCAAUAUUAUUAUU [AstrosExyTheB#3] | 18.8 | 33.4 | – | 33.8 | – |
| UAUCCACAUGAGGAUCACCCAUGUAGGGAAGGAGCGGUGAUUUCACCAGGUAGGUCGCCUUGCUGAGGGUAGCCGGUGGAAUCGU [Exclusion - Arginine A (Freestyle 32)] | 24.4 | 22.4 | 9.15 | 10.9 | 19.7 |
| UAUCCACAUGAGGAUCACCCAUGUAUGGAAGGAGCGGUGAAUGAACCAGGUAGGUCGCCAUGGUGAGGAUCAUCUAUGGAUUCGU [Exclusion - Arginine A (Freestyle 9)] | 30.3 | 82.4 | 72.2 | 86.7 | 56.5 |
| UAUCGAAACUGAAGGAGCGAGAUGACAAACAUGAGGAUCACCCAUGUUAUGGGUUGUUAAUCUCAGGUAGGUCGCAGUGGUAGCA [Same State Arginine B GF 17] | 88.1 | 142 | 245 | 156 | 141 |
| UAUCGAGGUACAUGAGGAUCACCCAUGUAUCGAGGACCGGUACGGCCGCCACUCGAUAAUGGCGGAUCGUUAGUCCUCUUCGAUA [Tryp A Ex 4b] | – | 14 | 12.7 | – | – |
| UAUCGGAACUGAAGGAGCGAGAUGACAAACAUGAGGAUCACCCAUGUUAUGGGUUGUUAAUCUCAGGUAGGUCGCAGUGGUAGCA [#27 Same State - Arginine B] | 52.7 | 138 | 194 | 151 | 151 |
| UAUCGGCACUGAAGGAGCGAGUUGACAAACAUGAGGAUCACCCAUGUUAUGGGUUGUUAAUCUCAGGUAGGUCGCAGUUGUCGCA [Same State Arginine B GF 19] | 221 | 403 | 576 | 500 | 334 |
